Publication PMC8871475, “An Antibody-Aptamer-Hybrid Lateral Flow Assay for Detection of CXCL9 in Antibody-Mediated Rejection after Kidney Transplantation”

Biological target: T1, CXCL9 (CXC-motif chemokine ligand 9) (UniProt Q07325 23-125)
T1 sequence: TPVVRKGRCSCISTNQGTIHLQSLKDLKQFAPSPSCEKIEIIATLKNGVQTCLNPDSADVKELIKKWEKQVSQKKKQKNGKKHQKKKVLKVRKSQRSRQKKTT
Experiment: lateral flow assay (antibody-aptamer sandwich); capture antibody A in test zone; LOD 10 pg/mL CXCL9 in binding buffer, 45 min; LFA binding buffer (PBS-based, urine-like): 138 mM NaCl, 5 mM KCl, 8.1 mM Na2HPO4, 1.5 mM KH2PO4, 1 mM MgCl2, 1 mM CaCl2, 170 mM urea, 7 mM ammonium acetate, 0.25% BSA, 0.1 mg/mL salmon sperm DNA, pH 6.5; temperature not stated; Kd conditions not given
Conditions: protein: commercial; label: gold nanoparticle (5')

B1: AuNP-G123 (ssDNA)
DNA: CACGACGCAAGGGACCACAGGGAGGGAGGGTGGGCAAAGGGCCCTAAGTCCGTAACAAAAACACAGCACGACACCGCAGAGGCA
modifications: 5' C6-disulfide linker and hexaethylene glycol spacer
Question: Does B1 bind?
Answer: binds
